Experimental data from paper PMC11432383.

Columns and labels:
[1] = target: SyMRP, MoxR AAA+ ATPase of Synechococcus sp. strain NKBG15041c, with a His-tag at the C-terminus (Synechococcus sp. strain NKBG15041c); assay: AUC; sedimentation velocity, 2.0 mg/mL SyMRP, 50 mM Tris-HCl pH 8.0, 200 mM NaCl, without ATP, 25 °C, 60,000 rpm, interference optics, SEDFIT
[2] = target: SyMRP, MoxR AAA+ ATPase of Synechococcus sp. strain NKBG15041c, with a His-tag at the C-terminus (Synechococcus sp. strain NKBG15041c); assay: negative-stain transmission electron microscopy; carbon-coated copper grids, 2.5% uranyl acetate, 50,000x, 100 kV
[3] = target: SyMRP, MoxR AAA+ ATPase of Synechococcus sp. strain NKBG15041c, with a His-tag at the C-terminus (Synechococcus sp. strain NKBG15041c); assay: atomic force microscopy; high-speed AFM, sample on Ni2+-coated mica, washed with 50 mM Tris-HCl pH 7.5
[4] = target: SyMRP, MoxR AAA+ ATPase of Synechococcus sp. strain NKBG15041c, with a His-tag at the C-terminus (Synechococcus sp. strain NKBG15041c); assay: AUC; sedimentation velocity, 2.0 mg/mL SyMRP, 50 mM Tris-HCl pH 8.0, 200 mM NaCl, with 1 mM ATP, 25 °C, 60,000 rpm, interference optics, SEDFIT
[5] = target: SyMRP, MoxR AAA+ ATPase of Synechococcus sp. strain NKBG15041c, with a His-tag at the C-terminus (Synechococcus sp. strain NKBG15041c); assay: SEC; HPLC gel filtration column SB-804HQ, 50 mM Tris-HCl pH 7.5, 0.1 mM EDTA, 150 mM NaCl, 0.5 mL/min; mass from marker proteins (apparent)
[6] = target: SyMRP, MoxR AAA+ ATPase of Synechococcus sp. strain NKBG15041c, with a His-tag at the C-terminus (Synechococcus sp. strain NKBG15041c); assay: AUC; sedimentation velocity, 2.0 mg/mL SyMRP, 50 mM Tris-HCl pH 8.0, 200 mM NaCl, without ATP, 25 °C, 60,000 rpm, interference optics, SEDFIT; remark: listed apart in the source

- stoichiometry N [1]: 6
- weight fraction w of the 4.18 S component (small oligomer) [1]: 4%
- weight fraction w of the 7.60 S component (hexamer) [1]: 91.4%
- stoichiometry N [2]: 6
- stoichiometry N [3]: 6
- weight fraction w of the 4.26 S component (small oligomer) [4]: 2.6%
- weight fraction w of the 7.53 S component (main component) [4]: 90.9%
- stoichiometry N [5]: 6
- stoichiometry N [6]: 2
Substance: SyMRP, MoxR AAA+ ATPase of Synechococcus sp. strain NKBG15041c, with a His-tag at the C-terminus (enzyme)
